US20120141482A1
pKd: −log10 of the molar value. Where “and” joins values, the source holds several entries; their conditions need not be identical. Equal entries are not always repeated. Values belong to the substance of their own block, whether it stands above or below them.

Key:
[1] = target: QL9/H-2 L^d complex (mouse) (UniProt P01897); experiment: flow cytometry, serial dilutions on QL9-loaded RMA-S L^d cells, detected with H57-FITC
[2] = target: p2Ca/H-2 L^d complex (mouse) (UniProt P01897); experiment: flow cytometry, serial dilutions on p2Ca-loaded RMA-S L^d cells, detected with H57-FITC
[3] = target: p2Ca/H-2 L^d complex (mouse) (UniProt P01897); experiment: flow cytometry competition with constant FITC-30.5.7 Fab on peptide-loaded RMA-S L^d cells
[4] = target: p2Ca/H-2 L^d complex (mouse) (UniProt P01897); experiment: flow cytometry competition with FITC-30.5.7 Fab on peptide-loaded RMA-S L^d cells
[5] = target: pVSV/H-2 K^b complex (mouse) (UniProt P01901); experiment: flow cytometry on T2 K^b cells, control peptide (background)
[6] = target: QL9/H-2 L^d complex (mouse) (UniProt P01897); experiment: direct flow cytometry on peptide-loaded L^d cells
[7] = target: p2Ca/H-2 L^d complex (mouse) (UniProt P01897); experiment: flow cytometry on L^d cells loaded with graded peptide concentrations; highest value
[8] = target: unloaded H-2 L^d molecules on RMA-S L^d cells (mouse) (UniProt P01897); experiment: direct flow cytometry on RMA-S L^d cells, unloaded (background)
[9] = target: H-2 L^d loaded with an irrelevant H-2 L^d binding peptide (mouse) (UniProt P01897); experiment: direct flow cytometry on RMA-S L^d cells, irrelevant peptide (background)
[10] = target: SL9/H-2 L^d complex (mouse) (UniProt P01897); experiment: direct flow cytometry on peptide-loaded RMA-S L^d cells
[11] = target: SIY/H-2 K^b complex (mouse) (UniProt P01901); experiment: flow cytometry on peptide-loaded T2 K^b cells
SIY/H-2 K^bm3 complex [12] = experiment: flow cytometry on peptide-loaded T2 K^bm3 cells
[13] = target: TCR of 5KC, a moth cytochrome C (MCC)-specific, I-E^k-restricted T cell hybridoma; experiment: flow cytometry on 5KC hybridoma cells
[14] = target: TCR of 5KC, a moth cytochrome C (MCC)-specific, I-E^k-restricted T cell hybridoma; experiment: flow cytometry on 5KC hybridoma cells; reference cells without primary reagent
[15] = target: TCR of 5KC, a moth cytochrome C (MCC)-specific, I-E^k-restricted T cell hybridoma; experiment: cell-based or functional assay
[16] = target: serologically reactive H-2 L^d on RENCA cells (mouse) (UniProt P01897); experiment: flow cytometry on unstimulated RENCA cells
[17] = target: QL9/H-2 L^d complex (mouse) (UniProt P01897); experiment: flow cytometry on L^d cells loaded with graded peptide concentrations; highest value
[18] = target: unloaded H-2 L^d molecules on RMA-S L^d cells (mouse) (UniProt P01897); experiment: direct flow cytometry on RMA-S L^d cells without peptide
[19] = target: serologically reactive H-2 L^d on RENCA cells (mouse) (UniProt P01897); experiment: flow cytometry on RENCA cells stimulated with 5-50 units/ml γ-IFN
dEV-8/H-2 K^bm3 complex = experiment: cell-based or functional assay
[20] = target: SIY/H-2 K^b complex (mouse) (UniProt P01901); experiment: cell-based or functional assay
SIY/H-2 K^bm3 complex [21] = experiment: cell-based or functional assay
[22] = target: p2Ca/H-2 L^d complex (mouse) (UniProt P01897); experiment: cell-based or functional assay

Sequence of 2C TCR on 2C CTL (A2KF29 whole entry): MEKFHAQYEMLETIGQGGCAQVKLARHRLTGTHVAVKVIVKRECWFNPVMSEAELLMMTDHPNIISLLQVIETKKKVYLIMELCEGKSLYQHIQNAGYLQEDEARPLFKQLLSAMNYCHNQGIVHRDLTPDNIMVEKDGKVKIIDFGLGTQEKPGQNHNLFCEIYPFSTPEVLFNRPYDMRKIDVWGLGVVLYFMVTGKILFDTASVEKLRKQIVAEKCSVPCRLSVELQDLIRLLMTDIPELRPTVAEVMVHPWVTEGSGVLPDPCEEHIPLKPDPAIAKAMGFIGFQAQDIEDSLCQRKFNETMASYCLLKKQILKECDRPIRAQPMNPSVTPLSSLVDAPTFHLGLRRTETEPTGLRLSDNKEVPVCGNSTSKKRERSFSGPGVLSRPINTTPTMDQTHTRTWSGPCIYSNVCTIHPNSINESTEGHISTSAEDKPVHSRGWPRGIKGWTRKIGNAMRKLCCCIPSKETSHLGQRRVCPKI
Sequence of QL9/H-2 L^d complex (mouse) (P01897 25-309, one chain of several): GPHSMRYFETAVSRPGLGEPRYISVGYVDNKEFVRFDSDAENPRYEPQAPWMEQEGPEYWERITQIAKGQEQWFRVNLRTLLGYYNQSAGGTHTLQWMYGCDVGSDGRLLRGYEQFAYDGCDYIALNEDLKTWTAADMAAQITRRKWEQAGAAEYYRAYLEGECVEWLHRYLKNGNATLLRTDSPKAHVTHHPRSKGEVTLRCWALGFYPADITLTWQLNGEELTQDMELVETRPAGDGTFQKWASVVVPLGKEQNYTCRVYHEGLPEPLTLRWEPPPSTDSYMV
Sequence of p2Ca/H-2 L^d complex (mouse) (P01897 25-309, one chain of several): as above
Sequence of SIY/H-2 K^b complex (mouse) (P01901 22-369, one chain of several): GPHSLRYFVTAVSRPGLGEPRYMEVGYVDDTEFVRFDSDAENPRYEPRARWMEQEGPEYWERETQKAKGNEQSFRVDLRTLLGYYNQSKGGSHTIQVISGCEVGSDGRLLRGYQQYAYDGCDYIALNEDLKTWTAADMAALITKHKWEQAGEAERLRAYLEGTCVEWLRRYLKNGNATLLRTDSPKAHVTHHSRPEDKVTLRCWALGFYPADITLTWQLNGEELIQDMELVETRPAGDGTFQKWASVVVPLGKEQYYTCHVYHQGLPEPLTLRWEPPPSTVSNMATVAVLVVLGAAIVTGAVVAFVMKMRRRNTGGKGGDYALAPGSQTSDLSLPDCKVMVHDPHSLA
Sequence of unloaded H-2 L^d molecules on RMA-S L^d cells (mouse) (P01897 25-309): as the sequence (P01897 25-309, one chain of several) above
Sequence of pVSV/H-2 K^b complex (mouse) (P01901 22-369, one chain of several): as the sequence (P01901 22-369, one chain of several) above
Sequence of H-2 L^d loaded with an irrelevant H-2 L^d binding peptide (mouse) (P01897 25-309): as the sequence (P01897 25-309, one chain of several) above
Sequence of SL9/H-2 L^d complex (mouse) (P01897 25-309, one chain of several): as above

concentration required to detect binding [1]: > 100 nM
concentration required to detect binding [2]: > 3000 nM
Kapp [3]: > 2000 nM
pKd [4]: < 5.70
Substance: soluble monovalent 2C TCR (from UniProt A2KF29)

MCF [16]: 500 MCF
MCF [17]: 3000 MCF
MCF [7]: 3000 MCF
fold increase of mean channel fluorescence, cells at 27° C. against 37° C. [18]: 5 fold
MCF [19]: 2670 to 3040 MCF
Substance: mAb 30.5.7 (antibody)

Second part, the substance before the results:

Substance: soluble divalent 2C TCR/Ig (from UniProt A2KF29)
lowest concentration at which binding was detected [1]: < 1 nM
MCF [5]: 14 MCF
MCF [6]: 3000 MCF
MCF [7]: 600 MCF
MCF [8]: 10 MCF
MCF [9]: 10 MCF
concentration required to detect binding [2]: 3 nM
MCF [10]: 100 MCF
MCF [11]: 276 MCF
MCF (SIY/H-2 K^bm3 complex [12]): 36 MCF
Kapp [3]: 108 nM

Substance: soluble divalent ^MCCI-E^k/IgG (peptide-MHC)
lowest concentration at which specific staining was seen [13]: 5 nM
mean channel fluorescence [13]: 300 MCF
fold increase of mean channel fluorescence [14]: 15 fold
IL-2 production, fold stimulation over anti-CD3 mAb at 92 ng/ml [15]: 10 fold

Substance: 2C TCR on 2C CTL (from UniProt A2KF29)
2C CTL mediated lysis, LD50 (peptide concentration) (dEV-8/H-2 K^bm3 complex): 0.5 ng/mL and 1 ng/mL
2C CTL mediated lysis, LD50 (peptide concentration) [20]: 10 ng/mL
2C CTL mediated lysis, LD50 (peptide concentration) (SIY/H-2 K^bm3 complex [21]): 100 ng/mL
2C CTL mediated lysis of p2Ca-loaded T2 L^d cells, LD50 (peptide concentration) [22]: 0.5 ng/mL
